{
  "source": "paper PMC7786333",
  "about": "“Integration of diverse DNA substrates by a casposase can be targeted to R-loops in vitro by its fusion to Cas9”",
  "binders": {"B1": {"name": "sgran50 + dsran50 (mixed)", "RNA": "GGUAGACGAUUACAUUGCUACAGUUUUAGAGCUAGAAAUAGCAAGUUAAAAUAAGGCUAGUCCGUUAUCAACUUGAAAAAGUGGCACCGAGUCGGUGCUU", "DNA 1": "CAACGTCATAGACGATTACATTGCTACATGGAGCTGTCTAGAGGATCCGA", "DNA 2": "TCGGATCCTCTAGACAGCTCCATGTAGCAATGTAATCGTCTATGACGTTG"}},
  "molecular_target": "Cas9 (Streptococcus pyogenes, UniProt Q99ZW2 1-1368)",
  "sequence (Q99ZW2 whole entry, the tested form may be a part)": "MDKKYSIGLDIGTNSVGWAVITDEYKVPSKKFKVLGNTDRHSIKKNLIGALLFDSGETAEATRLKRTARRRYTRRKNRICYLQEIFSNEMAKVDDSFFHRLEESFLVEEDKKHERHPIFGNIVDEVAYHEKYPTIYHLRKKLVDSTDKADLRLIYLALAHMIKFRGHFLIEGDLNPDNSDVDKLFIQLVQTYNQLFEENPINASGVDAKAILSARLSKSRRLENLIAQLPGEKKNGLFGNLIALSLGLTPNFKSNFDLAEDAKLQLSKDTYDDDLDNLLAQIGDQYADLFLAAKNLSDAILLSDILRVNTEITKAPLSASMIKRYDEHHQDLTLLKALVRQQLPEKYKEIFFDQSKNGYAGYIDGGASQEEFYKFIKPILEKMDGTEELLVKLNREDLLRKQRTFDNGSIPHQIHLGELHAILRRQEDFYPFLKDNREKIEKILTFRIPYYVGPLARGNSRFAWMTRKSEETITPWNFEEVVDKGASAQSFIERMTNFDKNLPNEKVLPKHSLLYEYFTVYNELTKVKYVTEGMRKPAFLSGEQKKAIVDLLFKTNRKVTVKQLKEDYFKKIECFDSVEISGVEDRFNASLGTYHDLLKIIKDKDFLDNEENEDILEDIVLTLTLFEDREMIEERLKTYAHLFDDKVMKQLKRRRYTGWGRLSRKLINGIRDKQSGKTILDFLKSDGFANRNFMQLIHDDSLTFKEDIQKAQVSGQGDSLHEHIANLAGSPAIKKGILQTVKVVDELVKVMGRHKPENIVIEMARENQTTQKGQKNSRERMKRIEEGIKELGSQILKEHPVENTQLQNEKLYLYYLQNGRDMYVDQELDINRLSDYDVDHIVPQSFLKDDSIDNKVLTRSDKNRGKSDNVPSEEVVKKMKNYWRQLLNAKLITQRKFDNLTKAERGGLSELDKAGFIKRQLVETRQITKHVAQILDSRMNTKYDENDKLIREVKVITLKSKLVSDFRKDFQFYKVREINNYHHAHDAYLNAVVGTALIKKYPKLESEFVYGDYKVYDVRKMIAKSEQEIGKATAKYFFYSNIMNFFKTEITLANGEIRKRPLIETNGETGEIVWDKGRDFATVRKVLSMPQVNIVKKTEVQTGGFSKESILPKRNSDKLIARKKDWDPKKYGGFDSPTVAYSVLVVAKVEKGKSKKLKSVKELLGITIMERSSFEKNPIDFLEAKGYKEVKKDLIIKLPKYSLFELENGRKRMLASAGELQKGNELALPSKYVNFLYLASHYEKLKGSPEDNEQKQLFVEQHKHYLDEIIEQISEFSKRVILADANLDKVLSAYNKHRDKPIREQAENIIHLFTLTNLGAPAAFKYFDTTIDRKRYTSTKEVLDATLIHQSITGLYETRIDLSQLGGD",
  "assay": "R-loop formation gel assay (deproteinised); sgran50; 5 mM EDTA; efficiency similar to fusions; 25 mM Tris pH 7.5, 106 mM KCl, 50 ug/ml BSA, 5 mM EDTA, 2 mM DTT, 9% glycerol, 37 C; 150 nM protein, 300 nM sgRNA, 25 nM Cy5-dsran50, 75 nM unlabelled MW12 dsDNA competitor; 8% acrylamide TBE gel",
  "conditions": "protein: recombinant, tags: His6, label: 5'-Cy5 on ssran50 strand (strand 2), blunt 50 bp DNA target plus sgRNA, PAM TGG",
  "data": [
    {"binder": "B1", "values": [
      {"measurement": "binding result", "result": "binds"}
    ]}
  ]
}
